This series can be described thus: soluble fraction after stress (log2 fold change); higher = more stays soluble; pooled small domains, quantitative proteomics. The conditions noted are these: stress: 50 degC. Put shortly: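 Each library was heated to 50°C as a stress step. The libraries, made up of small protein domains, were pooled and analysed at high throughput by quantitative proteomics. The reported value is the base-two logarithm of the fold change in each protein's soluble amount after stress, taken as a measure of aggregation propensity. The higher the value, the more protein stays in solution.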
For “HMIDFDHADIERLWNSIIHYVPERQKLDFAIDFIKSLEDIGVEHDVLRGSAELDPKLEEAVNTVFE”, the “soluble fraction (log2)” value was -0.52.

For the sequence “HMIDIIEYIISEESKGLRADQGIALQNPQYSRSLIQKWIKKGSVLVNNKIIRTKEILLEGDKISITPEENI”, the “soluble fraction (log2)” value is -0.384. For the sequence “HMIDKIRYPELIMKLAHQQGGTIKRRDVEQLLHLQTKQAYRELSKLVDAGELVSVGRGPGAHYEVS”, the “soluble fraction (log2)” value was 0.042. Regarding “HMIDQNEDLLSGYIDEVLSQNPDKVNEYLKGKSGLIGFFMGQIKQKSATALDAALLKSQLETALEKLRIK”, the “soluble fraction (log2)” value stood at 0.059. Consider “HMIDQSVVVQYLSKLTNTPYLKTREITMGEPYMQFERGEIKFQEYVEDIRALLPGGDRIDADRLRDIWMNS”, for which the “soluble fraction (log2)” value is -1.22. The value for “HMIDRADLWEALRKLPEDTLKLFSLHFEKGMTHDEISKHTDIPVGTVKTKLRRGLIEARKLAREF” was -0.795; that for “HMIDTPQELARLLRLLDEQNFEAEILFHKLRPDLLHLWSKEHVTRIAEALDAFDYQMALTLLNASP” was -2.23. For “HMIDVNLVQRGKTLHLRRRVPMRYSSVERREYVSISLKTDSEAEARRKAGAAWDQMIAAWEARLA”, the “soluble fraction (log2)” value was -0.35. For “HMIDYTDTSAVKDSAAVAGRVREMINEGVPIADVNAFIRSASENGLISDDSARRLRYMNDSR”, the “soluble fraction (log2)” value worked out at 0.0307. Turning to “HMIEDMTINIEERLSLNGDIKKSEYILQYIKPDFIRKVILSPELNKGEIYIYDSKKKVMYLPLFDQVSEEI”, the “soluble fraction (log2)” value was -0.463. For “HMIEINNLEDLKLMKEFILKNGKYGFGVFVGGKYIGLSDIGSVNSFKDTLGLPVVSLGNDDFKRFTEAH”, the “soluble fraction (log2)” value was -0.658.

With “HMIEQEQAFLEQVLKKYSQEELVLTVGSRTLVKYSAGQLERLLEHYPHVRLASSPVNGEAGFLLSRG”, the “soluble fraction (log2)” value was -0.0933. As for “HMIEQIELEARVPDELGGQRLDQVAAQMFDDFSRSRLTGWIRDGSLTADGQQLRPRDIVYGGTLLQLKAEQ”, the “soluble fraction (log2)” value was determined as 0.00374. As for “HMIESFQNGLVEHDQFTRPNPWVTPNFSKIEVPSILLSGKHADIDLWKHQNSIENTKKNRPDLFKNYLKKN”, the “soluble fraction (log2)” value came out at 0.211. With “HMIEYILDYLANRGVYAASQGEQQQMEDGIARYLQENGLEDGNTGAYYQKYVSNHLQQISASDLKAYFLN”, the “soluble fraction (log2)” value is -0.529.

With “HMIEYYDDEELDVFKGRQSDNYTNKEIEQFAEVLHTMRQDEVKGWNRSLILRSINLPDSLKDEVIMLI”, the “soluble fraction (log2)” value was -0.672.

Take “HMIFDPTTLPEKQLLVYGIISSHPGLNAKQISEMLTLKKSSIETAIKGLRKKEIIEYEGTTRNGG”: the “soluble fraction (log2)” value is -0.182. For the sequence “HMIFEEDILKEFRGSLIFITHDRRFLDNIATRIIELDRGKLLSFPGNFSAYKKAKNEQLANEAVENA”, the “soluble fraction (log2)” value was -0.446.

Turning to “HMIFEETVFKDIAFGPKNMGLSEAEIKRRVYETAENIGLSQELMERSPFELSGGQKRRVAIAGVMAMEP”, the “soluble fraction (log2)” value stood at 0.192.

For the sequence “HMIFELDSDRASAGNTIGKLVSKWNNTEVASVQFVSGDDTSNKDNASIYLNTRSGGSGNLVRLRITK”, the “soluble fraction (log2)” value amounted to 0.168. The figure for “HMIFRPALITDLDAVERHYTELLTREAETGRSSTNWSLGVYPTRQTATAAQAAGTLWVLEREGQVVASVI” is -0.245. Regarding “HMIFTPNGDRVNDVFEIEMGVKLEFQIIILNQQNQTVFKSADPDFKWDGTMLNGEPAPSGTYLYYFSAKD”, the “soluble fraction (log2)” value is 0.0847. The value for “HMIGERIKRARAAAGLSMQALGKQVGISANMVKKYEHDQSMPSSGVLLKLATALSVRTEYFFRPA” was -1.28. Turning to “HMIGGASVFKQFLPLADKMLLTLIHSEFEGDTYFPVFSEKEWLLQESSSLLSATGYQLSFQTYIR”, the “soluble fraction (log2)” value turned out to be 0.0328. The value for “HMIGGEDEILKVVLEVLEEKPEAIEQYKNGRTNIVDFLVGQVMKKTRGQANPATTREFMIREIEK” was 0.0588. For “HMIGKDLLGYEVFSESGDLVGILKDVMWLPHSDVYVITNGGKELLIPVIPEVVKGINHEQGVIVISPM”, the “soluble fraction (log2)” value is 0.0196. On to “HMIGPYAAAKLMTNKDFVKWLSGGVEKSVFNPNSFGQHIRRLVQISEVNPDIRDEINAVVQGLTQ”, for which the “soluble fraction (log2)” value is -0.361.

Turning to “HMIGRIKGQLIEKKSDSVVIDVHGIGYVVYVTEKTARSLTLGDQSRDISLYSELLVKEDLLQLVGFI”, the “soluble fraction (log2)” value was found to be 0.0137. Consider “HMIGRRLKVARASAGLSLRELAARMDGVVTPQAIGKYERNEDMPGSRALMALASALGVSEGYLLSD”, for which the “soluble fraction (log2)” value was -0.831. For the sequence “HMIHDSAESVVFPFGKYKGYTLAHVIREHPHYTYWIRDNADFSPLWREAVSLALQNRDIGHLNLPHVK”, the “soluble fraction (log2)” value is -0.416. With “HMIHMNMGQKINQLRLQKGFTLEELGNLVGVGKSTVRKWENGMIANMKRDKILLVAEALDTSPAYLMGWD”, the “soluble fraction (log2)” value is -1.54. Regarding “HMIIENIVVEIKGEVYNPGLYILEQGSRINDLIELSGGFTKDANGTDLNLAKVLSDGEVIIVSKKG”, the “soluble fraction (log2)” value was -0.2. “HMIIIMKPNASEEAVRKVTHIIESKGLQVHLSKGSQVTIVGVVGDKTRLQGSNIEISEGVDKVVAVT”: the “soluble fraction (log2)” value was -0.0139. The figure for “HMIILDASASRAIGNGTIEETKWDFGNGESSTNRGGPIVERQIYANQAAYILKLSMKTNDGQLFTKEIQLL” is -0.0666.

For the origin of these results see the domain aggregation screens of Martell et al. (2025).
